# Data reported in PMC6297170.
# Target: lysine decarboxylase CadA from Vibrio vulnificus (Vibrio vulnificus)
# Experiment: SEC; Sephacryl S-300 HR column on FPLC, 0.5 mL/min, 50 mM MES/100 mM NaCl pH 6.5; standards IgM 970 kDa, thyroglobulin 669 kDa, ferritin 440 kDa, catalase 232 kDa, aldolase 140 kDa; self-association of the purified enzyme
substance,measurement,value
lysine decarboxylase CadA from Vibrio vulnificus (from UniProt A0A3Q0L4X5 1-797) (enzyme),stoichiometry N,10
